Reference: US20170314054A1 (ROCHE SEQUENCING SOLUTIONS, published 2017)
No end group written: not given here.

T1: microbial transglutaminase from Streptomyces mobaraensis (MTG) (Streptomyces mobaraensis, UniProt P81453 77-407)
T1 sequence (looked up): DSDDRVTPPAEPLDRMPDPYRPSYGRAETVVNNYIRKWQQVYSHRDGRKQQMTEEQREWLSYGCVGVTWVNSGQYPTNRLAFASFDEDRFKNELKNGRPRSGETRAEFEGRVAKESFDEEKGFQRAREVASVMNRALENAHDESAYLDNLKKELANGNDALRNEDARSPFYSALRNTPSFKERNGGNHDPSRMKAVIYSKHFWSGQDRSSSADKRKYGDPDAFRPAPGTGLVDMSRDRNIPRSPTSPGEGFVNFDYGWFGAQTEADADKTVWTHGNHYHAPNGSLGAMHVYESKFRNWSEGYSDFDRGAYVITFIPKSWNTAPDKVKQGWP

B1: DYALQ (SEQ ID NO: 1) (peptide)
peptide: DYALQ
B2: FYALQ (SEQ ID NO: 10) (peptide)
peptide: FYALQ
modifications: also: flanked by G:S (3:1) linkers on peptide array
B3: DYTLQ (SEQ ID NO: 11) (peptide)
peptide: DYTLQ
B4: NYVLQ (SEQ ID NO: 12) (peptide)
peptide: NYVLQ
modifications: also: flanked by G:S (3:1) linkers on peptide array
B5: EYVAQ (SEQ ID NO: 13) (peptide)
peptide: EYVAQ
modifications: also: flanked by G:S (3:1) linkers on peptide array
B6: RYALQ (SEQ ID NO: 14) (peptide)
peptide: RYALQ
modifications: not fully specified
B7: YFALQ (SEQ ID NO: 15) (peptide)
peptide: YFALQ
modifications: not fully specified
B8: PYVLQ (SEQ ID NO: 16) (peptide)
peptide: PYVLQ
modifications: also: flanked by G:S (3:1) linkers on peptide array
B9: WYALQ (SEQ ID NO: 17) (peptide)
peptide: WYALQ
modifications: not fully specified
B10: SYALQ (SEQ ID NO: 18) (peptide)
peptide: SYALQ
modifications: not fully specified
B11: HYALQ (SEQ ID NO: 19) (peptide)
peptide: HYALQ
modifications: also: flanked by G:S (3:1) linkers on peptide array
B12: DYVLQ (SEQ ID NO: 2) (peptide)
peptide: DYVLQ
modifications: also: flanked by G:S (3:1) linkers on peptide array
B13: DYVAQ (SEQ ID NO: 20) (peptide)
peptide: DYVAQ
B14: EFVAQ (SEQ ID NO: 21) (peptide)
peptide: EFVAQ
modifications: also: flanked by G:S (3:1) linkers on peptide array
B15: DFYLQ (SEQ ID NO: 22) (peptide)
peptide: DFYLQ
B16: EFALQ (SEQ ID NO: 23) (peptide)
peptide: EFALQ
modifications: also: flanked by G:S (3:1) linkers on peptide array
B17: EYFLQ (SEQ ID NO: 24) (peptide)
peptide: EYFLQ
modifications: also: flanked by G:S (3:1) linkers on peptide array
B18: NFVLQ (SEQ ID NO: 25) (peptide)
peptide: NFVLQ
modifications: not fully specified; also: flanked by G:S (3:1) linkers on peptide array
B19: NYALQ (SEQ ID NO: 3) (peptide)
peptide: NYALQ
modifications: also: flanked by G:S (3:1) linkers on peptide array
B20: EYALQ (SEQ ID NO: 4) (peptide)
peptide: EYALQ
modifications: also: flanked by G:S (3:1) linkers on peptide array
B21: PYALQ (SEQ ID NO: 5) (peptide)
peptide: PYALQ
modifications: also: flanked by G:S (3:1) linkers on peptide array
B22: EYVLQ (SEQ ID NO: 6) (peptide)
peptide: EYVLQ
modifications: not fully specified; also: flanked by G:S (3:1) linkers on peptide array
B23: DFALQ (SEQ ID NO: 7) (peptide)
peptide: DFALQ
B24: ARSKL (SEQ ID NO: 54) (peptide)
peptide: ARSKL
B25: KSKLA (SEQ ID NO: 55) (peptide)
peptide: KSKLA
modifications: also: flanked by G:S (3:1) linkers on peptide array
B26: TKSKL (SEQ ID NO: 56) (peptide)
peptide: TKSKL
modifications: not fully specified
B27: KLSKL (SEQ ID NO: 57) (peptide)
peptide: KLSKL
modifications: also: flanked by G:S (3:1) linkers on peptide array
B28: RSKLG (SEQ ID NO: 58) (peptide)
peptide: RSKLG
modifications: not fully specified
B29: RGSKL (SEQ ID NO: 59) (peptide)
peptide: RGSKL
modifications: also: flanked by G:S (3:1) linkers on peptide array
B30: RGTKL (SEQ ID NO: 60) (peptide)
peptide: RGTKL
modifications: also: flanked by G:S (3:1) linkers on peptide array
B31: FPKLK (SEQ ID NO: 61) (peptide)
peptide: FPKLK
modifications: also: flanked by G:S (3:1) linkers on peptide array
B32: DYFLQ (SEQ ID NO: 8) (peptide)
peptide: DYFLQ
B33: RSKSK (SEQ ID NO: 62) (peptide)
peptide: RSKSK
modifications: not fully specified
B34: SKSKL (SEQ ID NO: 63) (peptide)
peptide: SKSKL
modifications: not fully specified
B35: FTKSK (SEQ ID NO: 64) (peptide)
peptide: FTKSK
modifications: also: flanked by G:S (3:1) linkers on peptide array
B36: KLKYK (SEQ ID NO: 65) (peptide)
peptide: KLKYK
modifications: also: flanked by G:S (3:1) linkers on peptide array
B37: PKTKL (SEQ ID NO: 66) (peptide)
peptide: PKTKL
modifications: also: flanked by G:S (3:1) linkers on peptide array
B38: RLKSK (SEQ ID NO: 67) (peptide)
peptide: RLKSK
modifications: also: flanked by G:S (3:1) linkers on peptide array
B39: RSKLA (SEQ ID NO: 68) (peptide)
peptide: RSKLA
modifications: not fully specified
B40: GRSKL (SEQ ID NO: 69) (peptide)
peptide: GRSKL
modifications: also: flanked by G:S (3:1) linkers on peptide array
B41: RAKYK (SEQ ID NO: 70) (peptide)
peptide: RAKYK
modifications: also: flanked by G:S (3:1) linkers on peptide array
B42: SKLSK (SEQ ID NO: 71) (peptide)
peptide: SKLSK
modifications: not fully specified
B43: NYFLQ (SEQ ID NO: 9) (peptide)
peptide: NYFLQ
modifications: also: flanked by G:S (3:1) linkers on peptide array
B44: KLGAK (SEQ ID NO: 72) (peptide)
peptide: KLGAK
modifications: also: flanked by G:S (3:1) linkers on peptide array
B45: QRSKL (SEQ ID NO: 73) (peptide)
peptide: QRSKL
modifications: also: flanked by G:S (3:1) linkers on peptide array
B46: KTKYK (SEQ ID NO: 74) (peptide)
peptide: KTKYK
modifications: also: flanked by G:S (3:1) linkers on peptide array
B47: LSKLK (SEQ ID NO: 75) (peptide)
peptide: LSKLK
modifications: also: flanked by G:S (3:1) linkers on peptide array
B48: NRTKL (SEQ ID NO: 76) (peptide)
peptide: NRTKL
modifications: also: flanked by G:S (3:1) linkers on peptide array

How the values were obtained:
[1] = target: T1, microbial transglutaminase from …; test: cell-based or functional assay
[2] = target: T1, microbial transglutaminase from …; test: cell-based or functional assay; remark: listed apart in the source

| Binder | Log2(signal), array MTG labeling with N-(Biotinyl)cadaverine [1] | A (array MTG labeling signal with Z-Gln-Gly-CAD-biotin) [2] |
| --- | --- | --- |
| B1 | 15.5 Log2(signal) | – |
| B2 | 15.4 Log2(signal) | – |
| B3 | 15.3 Log2(signal) | – |
| B4 | 15.3 Log2(signal) | – |
| B5 | 15.3 Log2(signal) | – |
| B6 | 15.3 Log2(signal) | – |
| B7 | 15.3 Log2(signal) | – |
| B8 | 15.3 Log2(signal) | – |
| B9 | 15.3 Log2(signal) | – |
| B10 | 15.2 Log2(signal) | – |
| B11 | 15.2 Log2(signal) | – |
| B12 | 15.5 Log2(signal) | – |
| B13 | 15.2 Log2(signal) | – |
| B14 | 15.2 Log2(signal) | – |
| B15 | 15.2 Log2(signal) | – |
| B16 | 15.2 Log2(signal) | – |
| B17 | 15.2 Log2(signal) | – |
| B18 | 15.2 Log2(signal) | – |
| B19 | 15.5 Log2(signal) | – |
| B20 | 15.5 Log2(signal) | – |
| B21 | 15.4 Log2(signal) | – |
| B22 | 15.4 Log2(signal) | – |
| B23 | 15.4 Log2(signal) | – |
| B24 | – | 13.4 |

| Binder | Log2(signal), array MTG labeling with N-(Biotinyl)cadaverine [1] | A (array MTG labeling signal with Z-Gln-Gly-CAD-biotin) [2] |
| --- | --- | --- |
| B25 | – | 13.4 |
| B26 | – | 13.4 |
| B27 | – | 13.4 |
| B28 | – | 13.4 |
| B29 | – | 13.4 |
| B30 | – | 13.4 |
| B31 | – | 13.4 |
| B32 | 15.4 Log2(signal) | – |
| B33 | – | 13.4 |
| B34 | – | 13.4 |
| B35 | – | 13.4 |
| B36 | – | 13.4 |
| B37 | – | 13.3 |
| B38 | – | 13.3 |
| B39 | – | 13.3 |
| B40 | – | 13.3 |
| B41 | – | 13.3 |
| B42 | – | 13.3 |
| B43 | 15.4 Log2(signal) | – |
| B44 | – | 13.3 |
| B45 | – | 13.3 |
| B46 | – | 13.3 |
| B47 | – | 13.3 |
| B48 | – | 13.3 |
